Measured values: US20210338838A1 (UNIVERSITY OF UTAH RESEARCH FOUNDATION, published 2021)

B1: eCFHT-SE (engineered truncated CFH, I62-Y402, ending in SESFTL) (other)
chain: EDCNELPPRRNTEILTGSWSDQTYPEGTQAIYKCRPGYRSLGNIIMVCRKGEWVALNPLRKCQKRPCGHPGDTPFGTFTLTGGNVFEYGVKAVYTCNEGYQLLGEINYRECDTDGWTNDIPICEVVKCLPVTAPENGKIVSSAMEPDREYHFGQAVRFVCNSGYKIEGDEEMHCSDDGFWSKEKPKCVEISCKSPDVINGSPISQKIIYKENERFQYKCNMGYEYSERGDAVCTESGWRPLPSCEEKSCDNPYIPNGDYSPLRIKHRTGDEITYQCRNGFYPATRGNTAKCTSTGWIPAPRCTLKPCDYPDIKHGGLYHENMRRPYFPVAVGKYYSYYCDEHFETPSGSYWDHIHCTQDGWSPAVPCLRKCYFPYLENGYNQNYGRKFVQGKSIDVACHPGYALPKAQTTVTCMENGWSPTPRCIRVSESFTL
notes: The chain is built from the first 445 residues shared by CFH and CFHT, less the 18-residue signal peptide, plus the printed C-terminal SESFTL; His-tagged and purified from HEK293 cells; also called protective eCFHT-SE; truncated product of eCFH/T v4.3
B2: monomeric C-reactive protein (CRP) (other, UniProt P02741 19-224, looked up)
chain: QTDMSRKAFVFPKESDTSYVSLKAPLTKPLKAFTVCLHFYTELSSTRGYSIFSYATKRQDNEILIFWSKDIGYSFTVGGSEILFEVPEVTVAPVHICTSWESASGIVEFWVDGKPRVRKSLKKGYTVGAEASIILGQEQDSFGGNFEGSQSLVGDIGNVNMWDFVLSPDEINTIYLGGPFSPNVLNWRALKYEVQGEVFTKPQLWP
B3: protective CFH-I62-Y402-E936 (full-length complement factor H) (other)
chain: EDCNELPPRRNTEILTGSWSDQTYPEGTQAIYKCRPGYRSLGNIIMVCRKGEWVALNPLRKCQKRPCGHPGDTPFGTFTLTGGNVFEYGVKAVYTCNEGYQLLGEINYRECDTDGWTNDIPICEVVKCLPVTAPENGKIVSSAMEPDREYHFGQAVRFVCNSGYKIEGDEEMHCSDDGFWSKEKPKCVEISCKSPDVINGSPISQKIIYKENERFQYKCNMGYEYSERGDAVCTESGWRPLPSCEEKSCDNPYIPNGDYSPLRIKHRTGDEITYQCRNGFYPATRGNTAKCTSTGWIPAPRCTLKPCDYPDIKHGGLYHENMRRPYFPVAVGKYYSYYCDEHFETPSGSYWDHIHCTQDGWSPAVPCLRKCYFPYLENGYNQNYGRKFVQGKSIDVACHPGYALPKAQTTVTCMENGWSPTPRCIRVKTCSKSSIDIENGFISESQYTYALKEKAKYQCKLGYVTADGETSGSITCGKDGWSAQPTCIKSCDIPVFMNARTKNDFTWFKLNDTLDYECHDGYESNTGSTTGSIVCGYNGWSDLPICYERECELPKIDVHLVPDRKKDQYKVGEVLKFSCKPGFTIVGPNSVQCYHFGLSPDLPICKEQVQSCGPPPELLNGNVKEKTKEEYGHSEVVEYYCNPRFLMKGPNKIQCVDGEWTTLPVCIVEESTCGDIPELEHGWAQLSSPPYYYGDSVEFNCSESFTMIGHRSITCIHGVWTQLPQCVAIDKLKKCKSSNLIILEEHLKNKKEFDHNSNIRYRCRGKEGWIHTVCINGRWDPEVNCSMAQIQLCPPPPQIPNSHNMTTTLNYRDGEKVSVLCQENYLIQEGEEITCKDGRWQSIPLCVEKIPCSQPPQIEHGTINSSRSSQESYAHGTKLSYTCEGGFRISEENETTCYMGKWSSPPQCEGLPCKSPPEISHGVVAHMSDSYQYGEEVTYKCFEGFGIDGPAIAKCLGEKWSHPPSCIKTDCLSLPSFENAIPMGEKKDVYKAGEQVTYTCATYYKMDGASNVTCINSRWTGRPTCRDTSCVNPPTVQNAYIVSRQMSKYPSGERVRYQCRSPYEMFGDEEVMCLNGNWTEPPQCKDSTGKCGPPPPIDNGDITSFPLSVYAPASSVEYQCQNLYQLEGNKRITCRNGQWSEPPKCLHPCVISREIMENYNIALRWTAKQKLYSRTGESVEFVCKRGYRLSSRSHTLRTTCWDGKLEYPTCAKR
notes: In the Western blot it was expressed in RPE1 cells from plasmid pCTM133; also called CFH-Protection
B4: protective CFHT-I62-Y402 (truncated complement factor H ending in SFTL) (other)
chain: EDCNELPPRRNTEILTGSWSDQTYPEGTQAIYKCRPGYRSLGNIIMVCRKGEWVALNPLRKCQKRPCGHPGDTPFGTFTLTGGNVFEYGVKAVYTCNEGYQLLGEINYRECDTDGWTNDIPICEVVKCLPVTAPENGKIVSSAMEPDREYHFGQAVRFVCNSGYKIEGDEEMHCSDDGFWSKEKPKCVEISCKSPDVINGSPISQKIIYKENERFQYKCNMGYEYSERGDAVCTESGWRPLPSCEEKSCDNPYIPNGDYSPLRIKHRTGDEITYQCRNGFYPATRGNTAKCTSTGWIPAPRCTLKPCDYPDIKHGGLYHENMRRPYFPVAVGKYYSYYCDEHFETPSGSYWDHIHCTQDGWSPAVPCLRKCYFPYLENGYNQNYGRKFVQGKSIDVACHPGYALPKAQTTVTCMENGWSPTPRCIRVSFTL
notes: In the Western blot it was expressed in RPE1 cells from pCTM134 and from eCFH/T v4.1; also called CFHT-Protection; native protective CFHT

Assays:
[1] = target: B2; assay: rank of binding affinity among six proteins, plate-based binding assays
[2] = target: T1, MDA-modified LDL particles; assay: as above
T1 construct: Not a plain protein; also called MDA-LDL; MDA adducts

[3] = target: T1, MDA-modified LDL particles; assay: plate-based binding assay, His-tagged recombinant protein from HEK293 cells
[4] = target: B3; assay: as above
[5] = target: B4; assay: as above
[6] = target: T2, eCFHT-SK (engineered truncated CFH, I62-Y402, ending in SKSFTL) (human, UniProt P08603 19-445); assay: as above
T2 construct: Non-natural variant of human CFHT with SK inserted before the C-terminal SFTL; In the Western blot it was expressed from eCFH/T v4.2 in RPE1 cells; also called protective eCFHT-SK; truncated product of eCFH/T v4.2
T2 sequence (P08603 other isoform, or with tags, fused parts or gaps): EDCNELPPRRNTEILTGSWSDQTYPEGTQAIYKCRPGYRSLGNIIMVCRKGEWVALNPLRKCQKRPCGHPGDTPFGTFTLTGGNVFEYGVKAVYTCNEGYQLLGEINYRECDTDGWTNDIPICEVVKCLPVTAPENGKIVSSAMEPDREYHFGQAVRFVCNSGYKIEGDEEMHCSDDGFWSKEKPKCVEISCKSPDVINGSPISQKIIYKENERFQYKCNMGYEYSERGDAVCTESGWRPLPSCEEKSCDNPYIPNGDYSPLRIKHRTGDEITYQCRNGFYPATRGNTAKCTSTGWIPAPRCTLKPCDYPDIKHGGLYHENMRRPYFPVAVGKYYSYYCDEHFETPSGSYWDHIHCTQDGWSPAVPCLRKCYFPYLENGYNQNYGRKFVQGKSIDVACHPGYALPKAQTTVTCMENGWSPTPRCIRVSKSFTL

[7] = target: B1; assay: as above
[8] = target: B2; assay: relative CRP-binding assay, detection antibody AbCam OX-24 (#Ab112197)
[9] = target: T1, MDA-modified LDL particles; assay: relative MDA-binding assay, detection antibody AbCam OX-24 (#Ab112197)
[10] = target: B2; assay: relative CRP-binding assay, percent of CFH-Risk, detection antibody AbCam OX-24 (#Ab112197)
[11] = target: T1, MDA-modified LDL particles; assay: relative MDA-binding assay, percent of CFH-Risk, detection antibody AbCam OX-24 (#Ab112197)
[12] = target: B2; assay: plate-based CRP binding assay, against protective CFH

| Binding Affinity Rank (1 best to 6 worst) [1] | Binding Affinity Rank (1 best to 6 worst) [2] | Kd [3] | Kd [4] | Kd [5] | Kd [6] | Kd [7] | Binding Potential [8] | Binding Potential [9] | % FH-Risk [10] | % FH-Risk [11] | fold better binding affinity than CFH [12] | Binder |
| --- | --- | --- | --- | --- | --- | --- | --- | --- | --- | --- | --- | --- |
| 3 rank | 4 rank | 0.305 µM |  |  |  |  |  |  |  |  |  | B1 |
|  |  |  | 0.127 µM | 0.0143 µM | 0.0137 µM | 0.0253 µM |  |  |  |  |  | B2 |
| 4 rank | 2 rank | 0.222 µM |  |  |  |  | 10 | 75 | 656% | 251% |  | B3 |
| 2 rank | 1 rank | 0.219 µM |  |  |  |  | 87 | 32 | 5900% | 107% | ~10 fold | B4 |
